In patent publication US20200087373A1 (UNIVERSITY OF COPENHAGEN, published 2020):
Ends that are not written are not given here. * marks the point of attachment. C16 diacid = O=C(O)CCCCCCCCCCCCCCC(=O)*; Stearoyl = CCCCCCCCCCCCCCCCCC(=O)*; Palmitoyl = CCCCCCCCCCCCCCCC(=O)*; Myristoyl = CCCCCCCCCCCCCC(=O)*; Lauroyl = CCCCCCCCCCCC(=O)*

T1: human GIP receptor (human, UniProt P48546 22-466)
T1 construct: whole, on cells; Transiently transfected COS-7 cells expressing the human GIP receptor; also called hGIPR
T1 sequence (looked up): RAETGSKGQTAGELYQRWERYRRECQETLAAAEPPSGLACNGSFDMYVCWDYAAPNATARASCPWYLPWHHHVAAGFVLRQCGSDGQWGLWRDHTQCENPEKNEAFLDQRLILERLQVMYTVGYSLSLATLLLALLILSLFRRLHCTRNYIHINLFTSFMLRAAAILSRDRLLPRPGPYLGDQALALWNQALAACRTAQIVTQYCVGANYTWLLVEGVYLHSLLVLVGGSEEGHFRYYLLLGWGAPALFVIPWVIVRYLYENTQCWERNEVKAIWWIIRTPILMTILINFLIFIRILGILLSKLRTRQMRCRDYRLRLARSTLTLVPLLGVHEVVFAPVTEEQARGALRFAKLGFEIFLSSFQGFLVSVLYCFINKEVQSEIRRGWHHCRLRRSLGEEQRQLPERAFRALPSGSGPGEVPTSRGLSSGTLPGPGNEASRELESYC

B1: AT116 [hGIP(3-30)NH2-C12/18] (H18K) (peptide)
peptide: EGTFISDYSIAMDKIK(Lauroyl)QQDFVNWLLAQK-NH2
modifications: N-terminus assumed
SMILES: CCCCCCCCCCCC(=O)NCCCC[C@H](NC(=O)[C@@H](NC(=O)[C@H](CCCCN)NC(=O)[C@H](CC(=O)O)NC(=O)[C@H](CCSC)NC(=O)[C@H](C)NC(=O)[C@@H](NC(=O)[C@H](CO)NC(=O)[C@H](Cc1ccc(O)cc1)NC(=O)[C@H](CC(=O)O)NC(=O)[C@H](CO)NC(=O)[C@@H](NC(=O)[C@H](Cc1ccccc1)NC(=O)[C@@H](NC(=O)CNC(=O)[C@@H](N)CCC(=O)O)[C@@H](C)O)[C@@H](C)CC)[C@@H](C)CC)[C@@H](C)CC)C(=O)N[C@@H](CCC(N)=O)C(=O)N[C@@H](CCC(N)=O)C(=O)N[C@@H](CC(=O)O)C(=O)N[C@@H](Cc1ccccc1)C(=O)N[C@H](C(=O)N[C@@H](CC(N)=O)C(=O)N[C@@H](Cc1c[nH]c2ccccc12)C(=O)N[C@@H](CC(C)C)C(=O)N[C@@H](CC(C)C)C(=O)N[C@@H](C)C(=O)N[C@@H](CCC(N)=O)C(=O)N[C@@H](CCCCN)C(N)=O)C(C)C
B2: AT143 [hGIP(3-30)NH2[M14L; H18K]-C16/18] (peptide)
peptide: EGTFISDYSIALDKIK(Palmitoyl)QQDFVNWLLAQK-NH2
modifications: N-terminus assumed
SMILES: CCCCCCCCCCCCCCCC(=O)NCCCC[C@H](NC(=O)[C@@H](NC(=O)[C@H](CCCCN)NC(=O)[C@H](CC(=O)O)NC(=O)[C@H](CC(C)C)NC(=O)[C@H](C)NC(=O)[C@@H](NC(=O)[C@H](CO)NC(=O)[C@H](Cc1ccc(O)cc1)NC(=O)[C@H](CC(=O)O)NC(=O)[C@H](CO)NC(=O)[C@@H](NC(=O)[C@H](Cc1ccccc1)NC(=O)[C@@H](NC(=O)CNC(=O)[C@@H](N)CCC(=O)O)[C@@H](C)O)[C@@H](C)CC)[C@@H](C)CC)[C@@H](C)CC)C(=O)N[C@@H](CCC(N)=O)C(=O)N[C@@H](CCC(N)=O)C(=O)N[C@@H](CC(=O)O)C(=O)N[C@@H](Cc1ccccc1)C(=O)N[C@H](C(=O)N[C@@H](CC(N)=O)C(=O)N[C@@H](Cc1c[nH]c2ccccc12)C(=O)N[C@@H](CC(C)C)C(=O)N[C@@H](CC(C)C)C(=O)N[C@@H](C)C(=O)N[C@@H](CCC(N)=O)C(=O)N[C@@H](CCCCN)C(N)=O)C(C)C
B3: AT158 [hGIP(3-30)NH2[H18K]-C16diacid/18] (peptide)
peptide: EGTFISDYSIAMDKIK(C16 diacid)QQDFVNWLLAQK-NH2
modifications: N-terminus assumed
SMILES: CC[C@H](C)[C@H](NC(=O)[C@H](CO)NC(=O)[C@H](Cc1ccc(O)cc1)NC(=O)[C@H](CC(=O)O)NC(=O)[C@H](CO)NC(=O)[C@@H](NC(=O)[C@H](Cc1ccccc1)NC(=O)[C@@H](NC(=O)CNC(=O)[C@@H](N)CCC(=O)O)[C@@H](C)O)[C@@H](C)CC)C(=O)N[C@@H](C)C(=O)N[C@@H](CCSC)C(=O)N[C@@H](CC(=O)O)C(=O)N[C@@H](CCCCN)C(=O)N[C@H](C(=O)N[C@@H](CCCCNC(=O)CCCCCCCCCCCCCCC(=O)O)C(=O)N[C@@H](CCC(N)=O)C(=O)N[C@@H](CCC(N)=O)C(=O)N[C@@H](CC(=O)O)C(=O)N[C@@H](Cc1ccccc1)C(=O)N[C@H](C(=O)N[C@@H](CC(N)=O)C(=O)N[C@@H](Cc1c[nH]c2ccccc12)C(=O)N[C@@H](CC(C)C)C(=O)N[C@@H](CC(C)C)C(=O)N[C@@H](C)C(=O)N[C@@H](CCC(N)=O)C(=O)N[C@@H](CCCCN)C(N)=O)C(C)C)[C@@H](C)CC
B4: AT159 [hGIP(3-30)NH2[K16R; H18K; K30R]-C16diacid/18] (peptide)
peptide: EGTFISDYSIAMDRIK(C16 diacid)QQDFVNWLLAQR-NH2
modifications: N-terminus assumed
SMILES: CC[C@H](C)[C@H](NC(=O)[C@H](CO)NC(=O)[C@H](Cc1ccc(O)cc1)NC(=O)[C@H](CC(=O)O)NC(=O)[C@H](CO)NC(=O)[C@@H](NC(=O)[C@H](Cc1ccccc1)NC(=O)[C@@H](NC(=O)CNC(=O)[C@@H](N)CCC(=O)O)[C@@H](C)O)[C@@H](C)CC)C(=O)N[C@@H](C)C(=O)N[C@@H](CCSC)C(=O)N[C@@H](CC(=O)O)C(=O)N[C@@H](CCCNC(=N)N)C(=O)N[C@H](C(=O)N[C@@H](CCCCNC(=O)CCCCCCCCCCCCCCC(=O)O)C(=O)N[C@@H](CCC(N)=O)C(=O)N[C@@H](CCC(N)=O)C(=O)N[C@@H](CC(=O)O)C(=O)N[C@@H](Cc1ccccc1)C(=O)N[C@H](C(=O)N[C@@H](CC(N)=O)C(=O)N[C@@H](Cc1c[nH]c2ccccc12)C(=O)N[C@@H](CC(C)C)C(=O)N[C@@H](CC(C)C)C(=O)N[C@@H](C)C(=O)N[C@@H](CCC(N)=O)C(=O)N[C@@H](CCCNC(=N)N)C(N)=O)C(C)C)[C@@H](C)CC
B5: AT160 [hGIP(3-30)NH2[H18K]-C18/18] (peptide)
peptide: EGTFISDYSIAMDKIK(Stearoyl)QQDFVNWLLAQK-NH2
modifications: N-terminus assumed
SMILES: CCCCCCCCCCCCCCCCCC(=O)NCCCC[C@H](NC(=O)[C@@H](NC(=O)[C@H](CCCCN)NC(=O)[C@H](CC(=O)O)NC(=O)[C@H](CCSC)NC(=O)[C@H](C)NC(=O)[C@@H](NC(=O)[C@H](CO)NC(=O)[C@H](Cc1ccc(O)cc1)NC(=O)[C@H](CC(=O)O)NC(=O)[C@H](CO)NC(=O)[C@@H](NC(=O)[C@H](Cc1ccccc1)NC(=O)[C@@H](NC(=O)CNC(=O)[C@@H](N)CCC(=O)O)[C@@H](C)O)[C@@H](C)CC)[C@@H](C)CC)[C@@H](C)CC)C(=O)N[C@@H](CCC(N)=O)C(=O)N[C@@H](CCC(N)=O)C(=O)N[C@@H](CC(=O)O)C(=O)N[C@@H](Cc1ccccc1)C(=O)N[C@H](C(=O)N[C@@H](CC(N)=O)C(=O)N[C@@H](Cc1c[nH]c2ccccc12)C(=O)N[C@@H](CC(C)C)C(=O)N[C@@H](CC(C)C)C(=O)N[C@@H](C)C(=O)N[C@@H](CCC(N)=O)C(=O)N[C@@H](CCCCN)C(N)=O)C(C)C

Key:
[1] = target: T1, human GIP receptor; experiment: 125I-hGIP competition binding on hGIPR COS-7 cells; fold in affinity, paired, reference taken as GIP(3-30)NH2
Procedure: (§1) After incubation, the cells were washed twice in ice-cold binding buffer (+/−2% HSA) and lysed using 200 mM NaOH with 1% SDS for 30 min. Nonspecific binding was determined as the binding of radioactive ligand to untransfected cells.

[2] = target: T1, human GIP receptor; experiment: cell-based or functional assay
[3] = target: T1, human GIP receptor; experiment: 125I-hGIP(1-42) competition binding, COS-7 cells expressing human GIPR, 0.1% casein (no HSA)
Procedure: as §1

[4] = target: T1, human GIP receptor; experiment: 125I-hGIP(1-42) competition binding, COS-7 cells expressing human GIPR, 2% HSA
Procedure: as §1

[5] = target: T1, human GIP receptor; experiment: ratio of IC50 with 2% HSA to IC50 with 0.1% casein, 125I-hGIP competition binding on hGIPR COS-7 cells
Procedure: as §1

[6] = target: T1, human GIP receptor; experiment: 125I-hGIP(1-42) competition binding, COS-7 cells expressing human GIPR
Procedure: as §1

Binder | fold (paired) [1] [fold] | cAMP - antagonisme IC50 [2] [nM] | cAMP - antagonisme fold (paired) [2] [fold] | IC50 [3] [nM] | IC50 [4] [nM] | Fold change (IC50 2% HSA / IC50 0.1% casein) [5] [fold] | IC50 [6] [nM]
B1 | 5 | 11.9 | 1.2 | 61.5 | 321 | 5.2 | 71.2
B2 | 11 | 13.3 | 0.3 | 86.1 | 105 | 1.2 | 86.1
B3 | 1 | 4.5 | 0.1 | 7.9 | 16 | 2 | 7.9
B4 | 3 | 5.6 | 0.1 | 25 | 20 | 0.8 | 25
B5 | 6 | 36.1 | 0.7 | 48.8 | 175 | 3.6 | 48.8
EGTFISDYSIAMDK(Myristoyl)IHQQDFVNWLLAQK-NH2 [AT111 [hGIP(3-30)NH2-C14/16]] | 31 | 21.9 | 3.3 | 407 | 2090 | 5.1 | 261
